Values quoted from earlier work, collected in US12509496B2 (Shanghai Minwei Biotechnology Co., LTD, priority 2020, dated 2025).

Settings: in the blood; cited from earlier work

Q: For dulaglutide, which half-life in vivo is on record?
A: The half-life in vivo was 108 to 113 h.
